Experiments:
Conditions in all cases: both partners purified
DNAJA2 = target: T1, DNAJA2 (human, UniProt O60884 1-412); experiment: NMR titration; 15N-HSQC at 15 °C, 800 MHz; 25–35 μM 15N/13C-labelled PLD in NMR buffer with 10 mM DTT (5 mM ZnCl2 for DNAJA2); unlabelled JDP co-chaperones added; signal intensity decay shown at 1:2 molar ratio
T1 construct: DNAJA2, human, cDNA cloned into pET28a (GenScript); 5 mM ZnCl2 and 10 mM DTT were added to its NMR samples; also called HSP40 (class A JDP)

DNAJC7 = target: T2, DNAJC7 (human, UniProt Q99615 1-494); experiment: NMR titration; 15N-HSQC at 15 °C, 800 MHz; 25–35 μM 15N/13C-labelled PLD with HSP72 and a JDP at 1:2:2 molar ratio (PLD:HSP70:co-chaperone), NMR buffer with 10 mM DTT
T2 construct: DNAJC7, human, cDNA cloned into pET28a (GenScript); also called HSP40 (class C JDP)
T2 sequence (looked up): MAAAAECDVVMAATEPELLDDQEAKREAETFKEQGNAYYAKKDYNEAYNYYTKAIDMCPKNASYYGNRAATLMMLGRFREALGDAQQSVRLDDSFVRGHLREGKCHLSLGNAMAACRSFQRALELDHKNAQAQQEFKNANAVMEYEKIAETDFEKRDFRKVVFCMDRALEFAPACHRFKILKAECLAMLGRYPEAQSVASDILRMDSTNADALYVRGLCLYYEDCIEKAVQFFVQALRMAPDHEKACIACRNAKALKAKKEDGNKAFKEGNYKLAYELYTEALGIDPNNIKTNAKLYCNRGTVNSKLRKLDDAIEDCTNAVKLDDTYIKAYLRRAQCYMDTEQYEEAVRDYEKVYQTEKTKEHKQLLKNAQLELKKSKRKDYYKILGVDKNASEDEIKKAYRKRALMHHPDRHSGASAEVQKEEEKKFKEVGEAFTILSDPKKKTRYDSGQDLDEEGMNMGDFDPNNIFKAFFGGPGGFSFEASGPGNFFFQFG

DNAJB1 = target: T3, DNAJB1 (human, UniProt P25685 1-340); experiment: as above
T3 construct: DNAJB1, human, cDNA cloned into pET28a (GenScript); also called HSP40 (class B JDP)

DNAJB4 = target: T4, DNAJB4 (human, UniProt Q9UDY4 1-337); experiment: as above
T4 construct: DNAJB4, human, cDNA cloned into pET28a (GenScript); also called HSP40 (class B JDP)

Measured: binding result

T3 sequence (P25685 whole entry): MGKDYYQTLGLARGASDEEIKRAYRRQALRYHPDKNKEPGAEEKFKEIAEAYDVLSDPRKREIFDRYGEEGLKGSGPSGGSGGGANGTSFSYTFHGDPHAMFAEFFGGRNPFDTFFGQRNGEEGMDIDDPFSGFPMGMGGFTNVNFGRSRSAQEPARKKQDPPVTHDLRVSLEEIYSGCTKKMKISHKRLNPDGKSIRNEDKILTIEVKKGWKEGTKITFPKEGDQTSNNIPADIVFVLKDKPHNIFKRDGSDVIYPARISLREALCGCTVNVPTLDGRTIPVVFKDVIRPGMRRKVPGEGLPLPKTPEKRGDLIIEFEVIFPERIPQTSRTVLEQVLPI
T4 sequence (Q9UDY4 whole entry): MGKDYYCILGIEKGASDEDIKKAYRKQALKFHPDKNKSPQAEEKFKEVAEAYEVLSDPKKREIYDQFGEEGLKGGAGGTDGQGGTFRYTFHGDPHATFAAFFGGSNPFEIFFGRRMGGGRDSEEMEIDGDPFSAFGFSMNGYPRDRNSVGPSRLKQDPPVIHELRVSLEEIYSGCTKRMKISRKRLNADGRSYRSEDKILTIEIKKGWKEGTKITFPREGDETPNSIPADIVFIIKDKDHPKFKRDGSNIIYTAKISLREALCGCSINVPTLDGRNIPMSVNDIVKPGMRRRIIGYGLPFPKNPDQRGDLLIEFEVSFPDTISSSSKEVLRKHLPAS
T1 sequence (O60884 whole entry): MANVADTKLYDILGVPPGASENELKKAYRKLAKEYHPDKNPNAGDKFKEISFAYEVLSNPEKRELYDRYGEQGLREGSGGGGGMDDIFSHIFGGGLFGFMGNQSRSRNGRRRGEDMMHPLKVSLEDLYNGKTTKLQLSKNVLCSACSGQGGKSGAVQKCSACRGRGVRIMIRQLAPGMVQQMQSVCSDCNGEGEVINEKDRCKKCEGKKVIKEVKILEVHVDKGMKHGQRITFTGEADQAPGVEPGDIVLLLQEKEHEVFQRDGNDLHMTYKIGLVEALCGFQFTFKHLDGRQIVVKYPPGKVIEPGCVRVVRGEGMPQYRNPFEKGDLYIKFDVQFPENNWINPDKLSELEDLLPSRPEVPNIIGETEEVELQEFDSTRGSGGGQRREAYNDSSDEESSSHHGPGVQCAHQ

B1: TDP-43 prion-like domain (fragment 274-414 of human TDP-43) (domain or fragment, UniProt Q13148 274-414, looked up)
chain: GRFGGNPGGFGNQGGFGNSRGGGAGLGNNQGSNMGGGMNFGAFSINPAMMAAAQAALQSSWGMMGMLASQQNQSGPSGNNQNQGNMQREPNQAFGSGNNSYSGSNSGAAIGWGSASNAGSGSGFNGGFGSSMDSKSSGWGM
notes: TDP-43, human, UniProt Q13148, C-terminal prion-like domain, residues 274-414; 15N/13C-labelled for the NMR experiments; also called PLD; TDP-43 PLD; not shown: Thioredoxin (TXA), N-terminal, cleaved; His6, N-terminal, cleaved
binds: all assays above
